How the values were obtained:
[1] = target: fibrinogen; experiment: cell-based or functional assay
[2] = target: canine fibrinogen (canine) (UniProt P68213); experiment: cell-based or functional assay

Row | Substance | titre in microtitre clumping assay (Newman wild-type) [1] [titre] | decrease in attachment of the fibrinogen receptor mutant to ex vivo polyvinyl chloride and polyethylene tubings exposed to canine blood [2] [%] | loss of adherence of the fibrinogen receptor mutant (cIfA::Tn917) to canine fibrinogen coated PMMA coverslips [2] [%] | Inhibiting concentration, inhibition of clumping by lysate [1] [micro g]
1 | CIfA protein on the surface of S. aureus strain Newman cells (from UniProt Q53653 40-899) (receptor) | 2048 | > 80 | > 95 | 
2 | glutathione S-transferase fusion protein of CIfA Region A (residues 23-550) expressed from pCF24 (from UniProt Q53653 23-550) |  |  |  | 9.37
3 | glutathione S-transferase fusion protein of CIfA regions R, W and M (residues 546-933) expressed from pCF25 (from UniProt Q53653 546-933) |  |  |  | > 300
4 | glutathione S-transferase fusion protein of CIfA residues 221-550 expressed from pCF31 (from UniProt Q53653 221-550) |  |  |  | 9.37

Reference: patent US20070036814A1
